Reference: patent US20030163846A1, “Process for the genetic modification of a plant” (priority 2000, published 2003)

Tests used:
[1] = yeast growth on a saccharose medium (SUSY7/ura3); assay type: cell-based; settings: 2% saccharose medium, pH 5.0
Protocol: (§1) The yeast strain SUSY7/ura3 is a modified version of SUSY7 (Riesmeier et al., EMBO J. (1992) 11, 4705-4713), which contains a deletion of a portion of the URA3 gene and, as a result, permits selection for uracil auxotrophy. Media that contained the 1.7 g/L yeast nitrogen base without amino acids (Difco), 2% saccharose, 20 mg/L tryptophane, and 1.5% agarose, pH 5.0, were used to analyze yeast growth on a saccharose medium.
(§2) For the saccharose uptake tests, yeast was cultivated in a liquid minimal medium containing glucose, up to an OD623 of approximately 0.8. Cells were collected by means of centrifugation, washed in 25 mM sodium phosphate buffer (pH 5.5), and suspended in the same buffer at an OD623 of 20. The uptake tests were initiated by adding glucose ending at a final concentration of 10 mM to the yeast cells one minute before adding ^14C-saccharose. Following incubation at 30° C. while stirring, cells were collected by means of vacuum filtration on fiberglass filters (1-5 minutes), washed twice with 4 mL 10 mM saccharose (at the freezing point), and the radioactivity was determined using a liquid scintillation counter. […] A significant difference compared with the vector controls is apparent.

[2] = 14C-saccharose uptake tests in yeast expressing SUT4 (SUSY7/ura3); assay type: cell-based; settings: for Km: Michaelis-Menten nonlinear regression
Protocol: as §1, §2
Data for the kinetic analysis were obtained for SUT4 from a nonlinear regression of the uptake measurements using the Michaelis-Menten equation. Km was represented as an average of eight determinations using three independent transformants±standard deviation. The KM value for saccharose that was determined was 11.6±0.6 mM (at a pH of 5.5) and 5.9±0.8 mM (at a pH of 4.0) for SUT4 from arabidopsis. For SUT4 from Solanum tuberosum the KM value was 6.0±1.2 mM (pH 4.0) (see FIG. 5B).

B1: AtSUT4: saccharose transporter SUT4 from Arabidopsis thaliana, amino acid sequence SEQ ID no. 5 (protein, listed as Arabidopsis thaliana)
chain: MATSDQDRRHRATRNRPPIPRPSNSSSRPVVPPPRSKVSKRVLLRVASVACGIQFGWALQLSLLTPYVQELGIPHAWASVIWLCGPLSGLFVQPLVGHSSDRCTSKYGRRRPFIVAGAVAISISVMVIGHAADIGWAFGDREGKIKPRAIVAFVLGFWILDVANNMTQGPCRALLADLTENDNRRTRVANGYFSLFMAVGNVLGYATGSYNGWYKIFTFTKTVACNVECANLKSAFYIDVVFIAITTILSVSAAHEVPLASLTSEAHGQTSGTDEAFLSEIFGTFRYFPGNVWIILLVTALTWIGWFPFILFDTDWMGREIYGGEPNIGTSYSAGVSMGALGLMLNSVFLGITSVLMEKLCRKWGAGFVWGISNILMAICFLGMIITSFVASHLGYIGHEQPPASIVFAAVLIFTILGIPLAITYSVPYALISIRIESLGLGQGLSLGVLNLAIVIPQVIVSVGSGPWDQLFGGGNSPALAVGAATGFIGGIVAILALPRTRIQKPIPLP
Question: For B1, which “yeast growth on saccharose” value [1] is on record?
Answer: The value was “permitted yeast to grow on saccharose”.

Question: And the “functional saccharose transporter (uptake of 14C-saccharose vs vector controls)” value ([2]; FIG. 5A)?
Answer: The value was “functional saccharose transporters”.

Question: And the Km ([2]; pH 4.0, average ± standard deviation)?
Answer: Its Km is 5.9 ± 0.8 mM.

Question: What about the Km ([2]; pH of 5.5, average of eight determinations ± standard deviation) of the same molecule?
Answer: The Km was 11.6 ± 0.6 mM.
